We go through one substance from PMC5149402.

The experiment concerns the target rat GluD2 ATD tetramerised with an engineered tetrameric coiled-coil zipper based on GCN4 (rat | not stated).

For orientation: stoichiometry N means the number of molecules, sites or subunits per partner or assembly.

Substance “rat GluD2 ATD tetramerised with an engineered tetrameric coiled-coil zipper based on GCN4 (domain or fragment)” had a stoichiometry N of 4.
